± gives the standard deviation of the averaged measurements.
System: ATP
Assay: switch fluorescence ratio, 500 uM ATP over buffer (Cy3 cluster intensity, sum of 5 cycles each) (fold (ratio)); higher = stronger signal-on switching upon ATP binding; sequences stand for … in TCGTCGGCAGCGTCAGATGTGTATAAGAGACAGTTTTTTTTTTTTTTTTTTTTTTTTT…TC
Details: aptamer strand: ATP DNA aptamer (quencher-CACCTGGGGGAGTATTGCGGAGGAAGG + anchor), 100 nM annealed; ATP concentration: 500 uM
Summary of the method: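 Values give the fluorescence ratio for each switch-domain sequence, averaged from per-cluster ratios of summed target-cycle to summed buffer-cycle Cy3 intensity. The Cy3-labelled switching-strand clusters sat on a modified Illumina MiSeq flow-cell, were annealed to 100 nM quencher-labelled ATP aptamer, and were imaged in selection buffer, then after 15 min with 500 uM ATP at 22 °C. Five cycles ran with NaOH stripping and re-annealing between them, and clusters outside 100-1000 RFU were excluded.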
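Note: ATP exposure 15 min at 22 °C before imaging.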

Sequence	switch fluorescence ratio
CACTCGTGGC	1.01 ± 0.053
CACTCTACGA	1.41 ± 0.073
CACTGCTTTT	0.992 ± 0.023
CACTGGAGAG	1.039 ± 0.0048
CACTGGCGAT	1.06 ± 0.054
CACTGGTTAA	0.995 ± 0.013
CACTGTCGAT	1.016 ± 0.0097
CACTTAAAAG	1.05 ± 0.13
CACTTAACAG	1.1 ± 0.017
CACTTAGGGC	1.06 ± 0.024
CACTTCATTT	1.01 ± 0.013
CACTTGCAGA	0.999 ± 0.013
CACTTGGTCG	1 ± 0.068
CACTTTCGT	0.959 ± 0.029
CACTTTTTGG	0.999 ± 0.003
CAGAAAAAAT	0.978 ± 0.038
CAGAAGGGGG	1.11 ± 0.16
CAGAAGGGTT	0.997 ± 0.038
CAGAATCAAC	1.05 ± 0.014
CAGAGATCTG	0.9732 ± 0.0053
CAGAGCCAAC	1.11 ± 0.016
CAGAGCTTTT	1.05 ± 0.058

Sequence	switch fluorescence ratio
CAGAGGATGC	0.995 ± 0.0041
CAGAGGGGTG	1.05 ± 0.012
CAGAGTAACA	0.973 ± 0.03
CAGAGTGGCA	1.02 ± 0.027
CAGATAGAAG	0.999 ± 0.012
CAGATAGACG	1.04 ± 0.036
CAGATAGCAG	1.093 ± 0.0021
CAGATATGGC	1.05 ± 0.034
CAGATCTGTA	1.0087 ± 0.00071
CAGATGAGGG	1.005 ± 0.0057
CAGATGGACG	0.968 ± 0.032
CAGATGGGGT	0.9839 ± 0.001
CAGATGGTCG	0.938 ± 0.057
CAGATGTGTT	0.9728 ± 0.0031
CAGCAAAAAG	0.985 ± 0.025
CAGCAACATG	1.04 ± 0.024
CAGCAGGCGG	1.01 ± 0.024
CAGCAGGCGT	1.03 ± 0.021
CAGCAGGGGC	1.11 ± 0.024
CAGCATCCTT	1.02 ± 0.043
CAGCATGTTT	0.988 ± 0.024
CAGCCAAAT	1.043 ± 0.01

Sequence	switch fluorescence ratio
CAGCCGACCG	1.163 ± 0.0088
CAGCCGGGTG	1.3412 ± 0.0003
CAGCCTTGTG	1.013 ± 0.0079
CAGCGAGGGG	1.21 ± 0.32
CAGCGAGTCC	1.067 ± 0.0012
CAGCGAGTGG	1 ± 0.036
CAGCGCTGGA	0.996 ± 0.033
CAGCGGACCG	1.02 ± 0.028
CAGCGTAGGT	1.02 ± 0.043
CAGCTACTTG	1.05 ± 0.025
CAGCTAGATA	0.9987 ± 0.0065
CAGCTAGCGG	0.97 ± 0.025
CAGCTAGGTT	1.31 ± 0.39
CAGCTAGTCC	1.176 ± 0.0035
CAGCTAGTGT	0.984 ± 0.028
CAGCTATTTA	1.02 ± 0.025
CAGCTTTTCA	1.024 ± 0.006
CAGGAACGAG	1.004 ± 0.0035
CAGGAAGCAG	1.05 ± 0.09
CAGGAATACT	3.61 ± 3
CAGGACGGGG	1.01 ± 0.038
CAGGACTATT	0.995 ± 0.021

Sequence	switch fluorescence ratio
CAGGACTGTT	1.02 ± 0.011
CAGGACTTAT	1.02 ± 0.064
CAGGAGAGCG	0.9934 ± 0.0077
CAGGAGGACT	1.02 ± 0.015
CAGGAGGATC	1.027 ± 0.0074
CAGGAGGGGG	0.992 ± 0.053
CAGGAGTCGT	1 ± 0.038
CAGGATATAT	1.01 ± 0.027
CAGGATCTAG	1 ± 0.024
CAGGATGCGT	0.9611 ± 0.0076
CAGGATTGGC	1.07 ± 0.019
CAGGCGTGTG	0.995 ± 0.011
CAGGCTACCT	1.2 ± 0.092
CAGGCTATTG	0.988 ± 0.023
CAGGGAAAAT	0.982 ± 0.012
CAGGGAAGG	0.995 ± 0.016
CAGGGACGGG	1.03 ± 0.018
CAGGGCGC	1.02 ± 0.088
CAGGGCGGAA	1.02 ± 0.019

Source: the supplement of paper PMC10126150
